Reference: patent publication US20100015126A1, “Methods of Binding of Cross-Beta Structures By Chaperones” (priority 2006, published 2010)

What follows are substances tested against T1, human mitochondrial HSP60 (Homo sapiens, UniProt P10809) (assay: ELISA: binding of HSP60 to immobilized (misfolded) protein ligands).
T1 construct: Dr. W. van Eden, Utrecht University; host or cells: E. coli
Method: Recombinant human HSP60 with N-terminal His-tag was a kind gift of Dr. R. van der Zee and Prof. Dr. W. van Eden (Institute of Infectious Diseases and Immunology, Faculty of Veterinary Medicine, Utrecht University, Utrecht, The Netherlands), and was supplied in lyophilized form. The HSP60 was produced in E. coli and purified using Nickel-Sepharose. The HSP60 was lyophilized from 20-40 mM ammonium-bicarbonate solution, after purification, and stored at −20° C. The construct lacks the mitochondrial signal sequence. […] Before use, the lyophilized protein is dissolved at room temperature at 1 mg/ml in 20-40 mM NH4HCO3, resulting in a pH of 7.0. Aliquots are stored at −20° C. or −80° C. The mitochondrial HSP60 is a functional dimer of heptamers (MW(HSP60 monomer)=˜58 kDa), and is involved in multimer protein assembling and aids in transport of unfolded proteins across membranes. For the binding studies, at two occasions separate HSP60 solutions were prepared originating from the same batch of purified protein, lyophilized in separate Eppendorf cups.
Binding of chaperones to immobilized (misfolded) protein ligands was determined using an enzyme linked immuno sorbent assay (ELISA) approach. For this purpose 50 μl/well of potential ligands at indicated concentrations or coat buffer only for control and background measurement purposes, were coated overnight at 4° C. or coated for 1 h at room temperature, with motion, in 50 mM NaHCO3 pH 9.6 (coat buffer). In general, ligands were coated at 5 μg/ml, unless stated otherwise. For example, BiP binding peptides 6BB# and oxLDL were coated at 50 μg/ml. Native haemoglobin (Sigma-Aldrich, H7379), albumin, IgIV Gammagard and ovalbumin controls were prepared from lyophilized stocks. The controls were prepared by dissolving lyophilized proteins at 1 mg/ml in PBS upon resuspending by pipetting, followed by a 30 minutes period at the roller device, at room temperature. The protein solutions were centrifuged for 10 minutes at 16,000*g and diluted in coat buffer. After coating the plates were washed at least three times with 50 mM Tris-HCl pH 7.3, 150 mM NaCl, 0.1% v/v Tween20, and blocked with Blocking reagent (Roche Diagnostics, Almere, The Netherlands; 11112589001), for 1 h at room temperature, with motion. Plates were washed three times and incubated in triplicate with indicated chaperone dilution series, at 50 μl/well, for 1 h at room temperature, with constant motion. For HSP90, 5 mM DTT is incorporated in the binding buffer (PBS/0.1% Tween20) to avoid unwanted disulfide bond formation of the HSP90. Plates were washed three times and incubated with anti-FLAG antibody (mouse antibody, M2, peroxidase conjugate; Sigma, A-8592) for BiP-FLAG-His, anti-His-tag antibody (Mouse Monoclonal Antibody, Cat. No. 70796, Novagen [0.2 mg/ml]) for HSP60, a 1:1 mix of 500-fold diluted anti-HSP90beta antibodies (Stressgen, SPA-643 [mouse monoclonal IgM], SPA-646 [rabbit polyclonal]) for HSP90 and an anti-DnaK antibody (Stressgen, 023SPA-880D [mouse monoclonal antibody]) for DnaK. After four wash cycles, secondary antibodies were added to the wells when required, 50 μl/well, for 45′ at room temperature, with motion. RAMPO and SWARPO were used at 3000 times dilution. […] In a second experiment with more immobilized misfolded proteins and controls, the detection of bound HSP90 with the mix of two anti-HSP90 antibodies was achieved by mixing 1:1500 SWARPO with 1:3000 RAMPO. After 5 washes with wash buffer followed by two washes with PBS, binding of antibodies was assessed. Bound anti-FLAG-PO, peroxidase-conjugated rabbit anti-mouse immunoglobulins (RAMPO, P0260, DAKOCytomation, Glostrup, Denmark) or peroxidase-coupled swine anti-rabbit immunoglobulins (SWARPO, P0217, DAKOCytomation) was visualized with tetramethylbenzidine (TMB, #45.01.20,/#45.014.01, Biosource, Nivelles, Belgium). The reaction was stopped after 5 minutes with 1% H2SO4 in H2O. Plates were read at 450 nm. […]

T1 sequence (P10809 27-573): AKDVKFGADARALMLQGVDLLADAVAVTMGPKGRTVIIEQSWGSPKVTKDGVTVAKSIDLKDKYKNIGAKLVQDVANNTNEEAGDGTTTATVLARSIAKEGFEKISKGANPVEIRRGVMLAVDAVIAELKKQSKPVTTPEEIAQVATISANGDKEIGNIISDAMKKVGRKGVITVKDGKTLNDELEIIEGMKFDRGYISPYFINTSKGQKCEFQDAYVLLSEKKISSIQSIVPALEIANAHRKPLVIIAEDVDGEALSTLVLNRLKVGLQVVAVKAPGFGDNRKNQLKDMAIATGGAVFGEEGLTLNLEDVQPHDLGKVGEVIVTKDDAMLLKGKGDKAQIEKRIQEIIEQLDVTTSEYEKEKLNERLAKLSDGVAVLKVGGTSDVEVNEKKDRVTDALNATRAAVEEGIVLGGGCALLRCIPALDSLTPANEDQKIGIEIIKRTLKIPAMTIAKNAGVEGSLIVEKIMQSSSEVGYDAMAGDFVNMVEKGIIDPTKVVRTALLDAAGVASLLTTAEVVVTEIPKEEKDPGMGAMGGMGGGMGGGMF

Substance | Binding of concentration series of HSP60 to coated ligand
BSA-AGE | has been established
GSNKGAIIGLM [6BB6, Human Aβ (25-35)] | has been established
Hb: non-modified human haemoglobin control | did not bind
HbAGE: human haemoglobin glycated with glucose-6-phosphate for 75 weeks | has been established
KLVFFAE [6BB12, Human Aβ16-22] | did not bind
native BSA: non-modified bovine serum albumin control | did not bind
